B1: Activated CDC42 kinase 1 (Mus musculus), O54967 (parent)
chain: MQPEEGTGWLLELLSEVQLQQYFLRLRDDLNITRLSHFEYVKNEDLEKIGMGRPGQRRLWEAVKRRKAMCKRKSWMSKVFSGKRLEAEFPSQHSQSTFRKPSPTPGSLPGEGTLQSLTCLIGEKDLRLLEKLGDGSFGVVRRGEWDAPAGKTVSVAVKCLKPDVLSQPEAMDDFIREVNAMHSLDHRNLIRLYGVVLTLPMKMVTELAPLGSLLDRLRKHQGHFLLGTLSRYAVQVAEGMAYLESKRFIHRDLAARNLLLATRDLVKIGDFGLMRALPQNDDHYVMQEHRKVPFAWCAPESLKTRTFSHASDTWMFGVTLWEMFTYGQEPWIGLNGSQILHKIDKEGERLPRPEDCPQDIYNVMVQCWAHKPEDRPTFVALRDFLLEAQPTDMRALQDFEEPDKLHIQMNDVITVIEGRAENYWWRGQNTRTLCVGPFPRNVVTSVAGLSAQDISQPLQNSFIHTGHGDSDPRHCWGFPDRIDELYLGNPMDPPDLLSVELSTSRPTQHLGRVKREPPPRPPQPAIFTQKTTYDPVSEDPDPLSSDFKRLGLRKPALPRGLWLAKPSARVPGTKADRSSGGEVTLIDFGEEPVVPTPRPCAPSLAQLAMDACSLLDKTPPQSPTRALPRPLHPTPVVDWDARPLPPPPAYDDVAQDEDDFEVCSINSTLVGAGLPAGPSQGETNYAFVPEQAQMPPALEDNLFLPPQGGGKPPSSVQTAEIFQALQQECMRQLQVPTGQLTPSPTPGGDDKPQVPPRVPIPPRPTRPRVELSPAPSGEEETSRWPGPASPPRVPPREPLSPQGSRTPSPLVPPGSSPLPHRLSSSPGKTMPTTQSFASDPKYATPQVIQAPGPRAGPCILPIVRDGRKVSSTHYYLLPERPPYLERYQRFLREAQSPEEPAALPVPPLLPPPSTPAPAAPTATVRPMPQAAPDPKANFSTNNSNPGARPPSLRAAARLPQRGCPGDGQEAARPADKVQMLQAMVHGVTTEECQAALQSHSWSVQRAAQYLKVEQLFGLGLRPRVECHKVLEMFDWNLEQAGCHLLGSCGPAHHKR

In the experiment the parent is B1. Conditions: with NCK1, P16333-1.
With K158A, the “effect of a mutation on the interaction” value was “disrupting interaction strength”.

The values above are taken from IntAct's records for PubMed 16777958.
